Reference: publication PMC3756924 (Molecular Biology of the Cell, 2013)

T1: GST-Sec24p (S. cerevisiae, UniProt P40482 1-926)
T1 sequence (looked up): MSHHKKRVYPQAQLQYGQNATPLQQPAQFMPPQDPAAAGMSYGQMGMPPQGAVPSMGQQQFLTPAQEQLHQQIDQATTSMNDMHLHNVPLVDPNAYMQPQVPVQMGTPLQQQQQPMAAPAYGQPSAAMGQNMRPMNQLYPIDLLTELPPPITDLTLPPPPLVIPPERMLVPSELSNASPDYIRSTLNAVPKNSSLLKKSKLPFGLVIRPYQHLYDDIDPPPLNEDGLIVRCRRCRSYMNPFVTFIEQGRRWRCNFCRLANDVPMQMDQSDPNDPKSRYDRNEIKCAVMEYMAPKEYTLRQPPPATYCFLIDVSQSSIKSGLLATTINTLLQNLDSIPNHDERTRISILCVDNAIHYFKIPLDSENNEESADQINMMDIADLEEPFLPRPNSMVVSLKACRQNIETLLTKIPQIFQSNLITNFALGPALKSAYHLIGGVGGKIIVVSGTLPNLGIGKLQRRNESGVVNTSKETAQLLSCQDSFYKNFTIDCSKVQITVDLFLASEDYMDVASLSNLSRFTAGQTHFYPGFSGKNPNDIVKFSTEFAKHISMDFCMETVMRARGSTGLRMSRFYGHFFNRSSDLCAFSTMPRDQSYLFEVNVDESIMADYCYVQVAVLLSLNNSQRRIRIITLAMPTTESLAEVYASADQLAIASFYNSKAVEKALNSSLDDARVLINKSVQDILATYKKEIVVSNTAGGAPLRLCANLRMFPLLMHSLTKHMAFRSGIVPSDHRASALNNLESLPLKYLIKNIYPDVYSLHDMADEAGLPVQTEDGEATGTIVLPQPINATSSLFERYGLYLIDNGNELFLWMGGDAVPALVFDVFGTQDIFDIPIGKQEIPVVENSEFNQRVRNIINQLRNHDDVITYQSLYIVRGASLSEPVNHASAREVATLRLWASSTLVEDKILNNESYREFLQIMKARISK

T2: GST-Lst1p (S. cerevisiae, UniProt P38810 1-929)
T2 sequence (looked up): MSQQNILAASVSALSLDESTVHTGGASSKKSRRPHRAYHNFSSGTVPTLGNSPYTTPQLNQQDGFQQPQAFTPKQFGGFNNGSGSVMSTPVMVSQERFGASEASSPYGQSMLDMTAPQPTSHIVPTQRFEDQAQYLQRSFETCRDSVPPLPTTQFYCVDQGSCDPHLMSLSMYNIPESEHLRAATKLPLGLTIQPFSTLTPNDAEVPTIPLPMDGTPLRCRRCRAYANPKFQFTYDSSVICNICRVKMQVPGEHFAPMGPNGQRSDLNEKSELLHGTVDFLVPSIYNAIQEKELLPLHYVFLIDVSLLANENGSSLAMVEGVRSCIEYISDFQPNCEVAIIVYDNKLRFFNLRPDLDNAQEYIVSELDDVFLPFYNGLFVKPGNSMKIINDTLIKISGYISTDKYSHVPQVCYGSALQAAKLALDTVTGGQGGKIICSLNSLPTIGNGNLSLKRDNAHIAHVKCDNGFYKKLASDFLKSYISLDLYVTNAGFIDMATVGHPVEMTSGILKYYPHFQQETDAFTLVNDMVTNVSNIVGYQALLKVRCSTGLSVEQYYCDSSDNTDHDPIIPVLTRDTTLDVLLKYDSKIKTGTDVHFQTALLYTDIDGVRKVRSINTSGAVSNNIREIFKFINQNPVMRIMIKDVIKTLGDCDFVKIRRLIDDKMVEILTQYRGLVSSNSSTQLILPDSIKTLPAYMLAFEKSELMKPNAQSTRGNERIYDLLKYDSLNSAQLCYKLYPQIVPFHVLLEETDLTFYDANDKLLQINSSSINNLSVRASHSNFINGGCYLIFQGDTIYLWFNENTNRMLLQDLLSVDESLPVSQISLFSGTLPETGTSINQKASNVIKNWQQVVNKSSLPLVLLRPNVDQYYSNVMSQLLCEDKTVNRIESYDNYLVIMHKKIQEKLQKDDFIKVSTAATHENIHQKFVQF

T3: GST-Sec31p (aa 1–500) (S. cerevisiae, UniProt P38968 1-500)
T3 sequence (looked up): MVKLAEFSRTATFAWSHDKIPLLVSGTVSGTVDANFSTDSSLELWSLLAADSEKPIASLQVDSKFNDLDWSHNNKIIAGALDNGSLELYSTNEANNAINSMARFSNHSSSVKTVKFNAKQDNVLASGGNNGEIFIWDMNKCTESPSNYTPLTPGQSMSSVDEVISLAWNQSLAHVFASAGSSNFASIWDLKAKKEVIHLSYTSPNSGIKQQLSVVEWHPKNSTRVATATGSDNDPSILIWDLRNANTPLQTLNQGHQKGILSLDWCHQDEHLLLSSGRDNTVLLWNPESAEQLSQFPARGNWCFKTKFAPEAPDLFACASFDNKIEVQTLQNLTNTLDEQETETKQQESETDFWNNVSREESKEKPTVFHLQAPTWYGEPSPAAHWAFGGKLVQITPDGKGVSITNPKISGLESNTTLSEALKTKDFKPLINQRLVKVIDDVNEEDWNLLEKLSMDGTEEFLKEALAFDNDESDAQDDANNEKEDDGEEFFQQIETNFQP

T4: GST-Sec23p (S. cerevisiae, UniProt P15303 1-768)
T4 sequence (looked up): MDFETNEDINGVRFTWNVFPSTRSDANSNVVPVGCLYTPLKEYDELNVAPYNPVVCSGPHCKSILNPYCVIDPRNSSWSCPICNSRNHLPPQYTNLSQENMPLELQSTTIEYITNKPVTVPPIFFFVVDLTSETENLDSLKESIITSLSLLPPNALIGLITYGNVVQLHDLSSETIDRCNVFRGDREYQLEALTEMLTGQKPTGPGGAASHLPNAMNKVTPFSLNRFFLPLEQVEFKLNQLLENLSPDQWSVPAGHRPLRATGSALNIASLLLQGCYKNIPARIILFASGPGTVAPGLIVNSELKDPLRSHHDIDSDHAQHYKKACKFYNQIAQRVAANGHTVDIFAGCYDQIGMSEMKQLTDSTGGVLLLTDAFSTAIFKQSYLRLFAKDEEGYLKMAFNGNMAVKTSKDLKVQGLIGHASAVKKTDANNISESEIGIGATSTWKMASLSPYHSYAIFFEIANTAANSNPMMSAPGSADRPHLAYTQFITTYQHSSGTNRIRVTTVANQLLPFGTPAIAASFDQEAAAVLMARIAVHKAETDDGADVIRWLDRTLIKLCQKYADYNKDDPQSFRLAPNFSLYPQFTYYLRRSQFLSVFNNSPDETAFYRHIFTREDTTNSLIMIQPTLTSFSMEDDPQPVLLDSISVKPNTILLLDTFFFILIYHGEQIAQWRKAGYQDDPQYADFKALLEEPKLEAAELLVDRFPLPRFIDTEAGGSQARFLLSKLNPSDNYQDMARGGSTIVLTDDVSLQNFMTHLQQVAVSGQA

B1: hexahistidine (His6)-Sit4p (enzyme, S. cerevisiae, UniProt P20604 1-311, looked up)
chain: MVSRGPDEWLETIKKCQALTENEMKQLCEMVKELLMEESNIQPVQTPVTVCGDIHGQFHDLLELFRTAGGFPDDINYIFLGDYVDRGYYSLETFTLLMCLKVKYPAKITLVRGNHESRQITQVYGFYEECLNKYGSTTVWKYCCQVFDFLTLAAIIDGKILCVHGGLSPEIRMLDQIRVLSRAQEVPHEGGFSDLLWSDPDNVEAWQVSPRGAGWLFGSKVAREFNHVNGLNLIARAHQLVMEGFKYHFPEKDVVTVWSAPNYCYRCGNVASVMKVDEDLEPTFKIFSAVPDDYIRESTANHNNQRAGYFL

Legend:
Test in all cases: pull-down
[1] = molecular target: B1
GST-Sec24p = molecular target: T1, GST-Sec24p
GST-Lst1p = molecular target: T2, GST-Lst1p
GST-Sec31p (aa 1–500) = molecular target: T3, GST-Sec31p (aa 1–500)
GST-Sec23p = molecular target: T4, GST-Sec23p

binding result [1] | binding result (GST-Sec24p) | binding result (GST-Lst1p) | binding result (GST-Sec31p (aa 1–500)) | binding result (GST-Sec23p) | Binder
binds |  |  |  |  | GST-Sec31p (aa 1115–1273) (domain or fragment, S. cerevisiae, UniProt P38968 1115-1273, looked up) RSNKLASIEQNPSQGATYPPTLSSSASPLQPSQPPTLASQVNTSAENVSHEIPADQQPIVDFLKEELARVTPLTPKEYSKQLKDCDKRLKILFYHLEKQDLLTQPTIDCLHDLVALMKEKKYKEAMVIHANIATNHAQEGGNWLTGVKRLIGIAEATLN
 | binds | binds | binds | binds | B1
